From publication PMC8167360

Target: X domain (Mac1) plus Mac2 (Mac1–2) of SARS-CoV Nsp3, purified (SARS-CoV (strain Frankfurt))
Assay: ITC; […] ([…]) […] ([…]) […]; 25°C; VP-ITC; 20 mM Tris–HCl pH 8.5, 150 mM NaCl

B1: middle domain of human Paip1 (Paip1M), purified (domain or fragment)
chain: GSHMASMTGGQQMGRGSTLSEYVQDFLNHLTEQPGSFETEIEQFAETLNGCVTTDDALQELVELIYQQATSIPNFSYMGARLCNYLSHHLTISPQSGNFRQLLLQRCRTEYEVKDQAAKGDEVTRKRFHAFVLFLGELYLNLEIKGTNGQVTRADILQVGLRELLNALFSNPMDDNLICAVKLLKLTGSVLEDAWKEKGKMDMEEIIQRIENVVLDANCSRDVKQMLLKLVELRSS
**Q.** For B1, which Kd is on record?
**A.** 18.6 µM

**Q.** What about the dH of the same binder?
**A.** -3.73 kcal/mol

**Q.** And the stoichiometry N?
**A.** 1.14
